Measurements reported in the DeepSol protein solubility set.

experiment: soluble on expression in E. coli; label from the status in PepcDB or PDB records

**Q.** With “MGHHHHHHSHMGKKIKKEVEPPPKDVFDPLMIESKKAATVVLMLNSPEEEILAKACEAIYKFALKGEENKTTLLELGAVEPLTKLLTHEDKIVRRNATMIFGILASNNDVKKLLRELDVMNSVIAQLAPEEEVVIHEFASLCLANMSAEYTSKVQIFEHGGLEPLIRLLSSPDPDVKKNSMECIYNLVQDFQCRAKLQELNAIPPILDLLKSEYPVIQLLALKTLGVIANDKESRTMLRDNQGLDHLIKILETKELNDLHIEALAVIANCLEDMDTMVQIQQTGGLKKLLSFAENSTIPDIQKNAAKAITKAAYDPENRKLFHEQEVEKCLVALLGSENDGTKIAASQAISAMCENSGSKDFFNNQGIPQLIQLLKSDNEEVREAAALALANLTTCNPANANAAAEADGIDPLINLLSSKRDGAIANAATVLTNMAMQEPLRLNIQNHDIMHAIISPLRSANTVVQSKAALAVTATACDVEARTELRNSGGLEPLVELLRSKNDEVRKHASWAVMVCAGDELTANELCRLGALDILEEVNVSGTRKNKFSEAAYNKLLNNNLSLKYSQTGYLSSSNIINDGFYDYGRINPGTKLLPLKEL” as the sequence, how does the “soluble on expression in E. coli” value read?
**A.** not soluble

**Q.** Which “soluble on expression in E. coli” value does the source give for “MGHHHHHHSHMGLSYQEELTLPFELCDVKSDIKLPLLLDYCLMVSGRQSAQLGRSNNNLLVDYKLVWIVTDYEITIHRLPHFQETIIIETKALSYNKFFCYRQFYIYDQEGGLLVDILAYFALLNPDTRKVATIPEDLVAPFETDFVKKLHRVPKMPLLEQSIDRDYYVRYFDIDMNGHVNNSKYLDWMYDVLGCEFLKTHQLLKMTLKYVKEVSPGGQITSSYHLDQLTSYHQIISDGQLNAQAMIEWRAIKPIESETD” here?
**A.** not soluble

**Q.** Which “soluble on expression in E. coli” value does the source give for “MGHHHHHHSHMGVTCVSQMPVAEGKSVQQTVELLTRKLEMLGAEKQGTFCVDCETYHTAASTLGSQGQTGKLMYVMHNSEYPLSCFALFENGPCLIADTNFDVLMVKLKGFFQSAKASKIETRGTRYQYCDFLVKVGTVTMGPSARGISVEVEYGPCVVASDCWSLLLEFLQSFLGSHTPGAPAVFGNRHDAVYGPADTMVQYMELFNKIRKQQQVPVAGIR” here?
**A.** soluble

**Q.** With “MGHHHHHHSHMIKLENELLLVEMKEAGAELTRIFHKDTKLEYLWNADSTFWGRHSPVLFPTVGRLVEDTYFVDGNPYHLGQHGFARDRDFKVVEHTENAVRFELDADEDSLTIYPYKFKLSIIYTIEKDSVAVSYEVENTDNKRIYFSIGAHPAFNLPLADGTTFEDYYLDFGTEENLETLCLEGPYRSGKIEKVVNEPARYLPLSYDLFKNDALIFEGLKQKEITIKSDKTPHFVKVSFPEFPFVGVWTAKAGTPFLCIEPWYGIADGAGKSVELRDKAGIEHLEPEAVFASEYKITIG” as the sequence, how does the “soluble on expression in E. coli” value read?
**A.** soluble

**Q.** Which “soluble on expression in E. coli” value does the source give for “MGHHHHHHSHMIRINEIKLPLDHEEGALLDAITKKLGIPAEKVISFNVFRRGYDARKKTNIHLIYTLDIIVEGDETALLAKFANDPHVRQTPDMEYKFVAKAPENLTERPIVIGFGPCGLFAGLVLAQMGFNPIIVERGKEVRERTKDTFGFWRKRTLNPESNVQFGEGGAGTFSDGKLYSQVKDPNFYGRKVITEFVEAGAPEEILYVSKPHIGTFKLVTMIEKMRATIIELGGEIRFSTRVDGLHMEDGQITGVTLSNGEEIKSRHVVLAVGHSARDTFEMLHERGVYMEAKPFSVGFRIEHKQSMIDEARFGPNAGHPILGAADYKLVHHCKNGRTVYSFCMCPGGTVVAATSEEGRVVTNGMSQYSRAERNANSAIVVGISPEVDYPGDPLAGIRFQRELESNAYKLGGENYDAPAQKIGDFLKGRDPSQLGDVEPSFTPGIKLTDLSKALPPFAVEAIREAIPAFDRKIKGFASEDGLLTGVETRTSSPVCIKRGKDFQSVNLKGFYPAGEGAGYAGGILSAGIDGIKVAEAVARDIVAAMENA” here?
**A.** soluble

**Q.** For “MGHHHHHHSHMKFRAKIVDGACLNHFTRISNMIAKLAKTCTLRISPDKLNFILCDKLANGGVSMWCELEQENFFNEFQMEGVSAENNEIYLELTSENLSRALKTAQNARALKIKLTNKHFPCLTVSVELLSMSSSSRIVTHDIPIKVIPRKLWKDLQEPVVP”, which “soluble on expression in E. coli” value is on record?
**A.** not soluble

**Q.** Which “soluble on expression in E. coli” value does the source give for “MGHHHHHHSHMKPIATVGESYQYPPVNWAALLSPLMRLNFGEEIQQLCLEIMVTQAQSSQNAAALLGLWVTPPLIHSLSLNTKRYLLISAPLWIKHISDEQILGFVENLMVAVFKAASPLGSPELCPSALHGLSQAMKLPSPAHHLWSLLSEATGKIFDLLPNKIRRKDLELYISIAKCLLEMTDDDANRIAQVTKSNIEKAAFVKLYLVSQGRFPLVNLTDMLSVAVQHREKEVLAWMILHSLYQARIVSHANTGVLKRMEWLLELMGYMKCCLPVNILSQYGS” here?
**A.** not soluble

**Q.** With “MGHHHHHHSHMLPVELVRHDVKKTDETSQVELMLQVDPDLFWFNGHFTGQPLLPGVAQLDWVMHYATTVLAQGWTFLSIENIKFQQPILPGKTLRLVLIWHAGKQSLTFSYSILEGDTERTASSGKIKLTPIMEDNPCQ” as the sequence, how does the “soluble on expression in E. coli” value read?
**A.** soluble

**Q.** With “MGHHHHHHSHMLREPGDPEKLGEFLQKDNISVHYFCLILSSKLPQRGQSNRGSMDFCLKTSKRRQPGLLGRSALCARKRELLSTARRISASETSICLVAKKGVAFHNFLESTNHFVTNIAQHRTSNMGMWGRKAASYVVKTYPNRVLRTSRARVVVKPSTTASAYRNMPTHQQSISSNVHSVTIERVSSRNAENGNPYSRQEVVPHSVCYVRIPRNPQGLLLS” as the sequence, how does the “soluble on expression in E. coli” value read?
**A.** not soluble

**Q.** With “MGHHHHHHSHMNGEIMDDSLKTSLITEEEDSTSEVLDEELKLQPFNSSEDSTNLVPLVVESSKPPEVDAPDKTPRIPDSEMLMDEGTSDEKGHMEEKLSLLPRKKAHLGSSDNVATMSNEERSDGGFPNSVIAEFSEEPVSENLSPNTTSSLEDQGEEGVSEPQETSTALPQSSLIEVELEDVPFSQNAGQKNQSEEQSEASSEQLDQFTQSAEKAVDSSSEEIEVEVPVVDRRNLRRKAKGHKGPAKKKAKLT” as the sequence, how does the “soluble on expression in E. coli” value read?
**A.** not soluble

**Q.** Which “soluble on expression in E. coli” value does the source give for “MGHHHHHHSHMNILFLQWKVKLPPQKEVITSDELMAHLGNCLLSIKPQEKSEGLQLNFQQNVDDAMTVLPKLATGLDVNVRFTGVSDFEYTPECSVFDLLGIPLYHGWLVDPQSPEAVRAVGKLSYNQLVERIITCKHSSDTNLVTEGLIAEQFPETTAAQLTYHGLCELTAAAKEGELSVFFRNNHFSTMTKHKSHLYLLVTDQGFLQEEQVVWESLHNVDGDSCFCDSDFHLRHSLGKGPGAEGGSGSPEKQLQVDQDYLIALSLQQQQPRGPLGLTDLELAQQLQQEEYQQQQAAQPVRMRTRVLSLQGRGATSGRPAGERRQRPKHESDCILL” here?
**A.** not soluble

**Q.** Which “soluble on expression in E. coli” value does the source give for “MGHHHHHHSHMPESYWEKVSGKNIPSSLDLYPIIHNYLQEDDEILDIGCGSGKISLELASLGYSVTGIDINSEAIRLAETAARSPGLNQKTGGKAEFKVENASSLSFHDSSFDFAVMQAFLTSVPDPKERSRIIKEVFRVLKPGAYLYLVEFGQNWHLKLYRKRYLHDFPITKEEGSFLARDPETGETEFIAHHFTEKELVFLLTDCRFEIDYFRVKELETRTGNKILGFVIIAQKL” here?
**A.** not soluble

**Q.** Which “soluble on expression in E. coli” value does the source give for “MGHHHHHHSHMPVVIKEVPSSEAAEDVMVAAPLVCSGKVLEVQVVNQTSVHVDLGSQPKENEAEPSTASSVPLQDEQEPPAYDQAPEVTLQADIEVMSTVHISSVYNDVPVTEGVVYIEQLPEQIVIPFTDQVACLKENEQSKENEQSPRVSPKSVVEKTTSGMSKKSVESVKLAQLEENAKYSSVYMEAEATALLSDTSLKGQPEVPAQLLDAEGAIKIGSEKSLHLEVEITSIVSDNTGQEESGENSVPQEMEGKPVLSGEAAEAVHSGTSVKSSSGPFPPAPEGLTAPEIEPEGEATAE” here?
**A.** not soluble

**Q.** Which “soluble on expression in E. coli” value does the source give for “MGHHHHHHSHMQTLPVASALSSHRTGPPPISPSKRKFSMEPGDEDLDCDNDHVSKMSRIFNPHLNKTANGDCRRDPRERSRSPIERAVAPTMSLHGSHLYTSLPSLGLEQPLALTKNSLDASRPAGLSPTLTPGERQQNRPSVITCASAGARNCNLSHCPIAHSGCAAPGPASYRRPPSAATTCDPVVEEHFRRSLGKNYKEPEPAPNSVSITGSVDDHFAKALGDTWLQIKAAKDGASSSPESASRRGQPASPSAHMVSHSHSPSVVS” here?
**A.** not soluble

**Q.** With “MGHHHHHHSHMRRAALRLCALGKGQLTPGRGLTQGPQNPKKQGIFHIHEVRDKLREIVGASTNWRDHVKAMEERKLLHSFLAKSQDGLPPRRMKDSYIEVLLPLGSEPELREKYLTVQNTVRFGRILEDLDSLGVLICYMHNKIHSAKMSPLSIVTALVDKIDMCKKSLSPEQDIKFSGHVSWVGKTSMEVKMQMFQLHGDEFCPVLDATFVMVARDSENKG” as the sequence, how does the “soluble on expression in E. coli” value read?
**A.** not soluble

**Q.** For “MGHHHHHHSHMSAVGTATPYLHHPGDSHSGRVSFLGAQLPPEVAAMARLLGDLDRSTFRKLLKFVVSSLQGEDCRDCCSVLGSAPTCRRAAGCLLAGMHTLLQQALRLPPTSLKPDTFRDPAPGALHPPRPGRGLGQRGIWEPAALLDSVAQQQGAWLPHVADFRWRVDVAISTSALARSLQPSVLMQLKLSDGSAYRFEVPTAKFQELRYSVALVLKEMADLEKRCERRLQD”, which “soluble on expression in E. coli” value is on record?
**A.** soluble

**Q.** Which “soluble on expression in E. coli” value does the source give for “MGHHHHHHSHMSFTTRSTFSTNYRSLGSVQAPSYGARPVSSAASVYAGAGGSGSRISVSRSTSFRGGMGSGGLATGIAGGLAGMGGIQNEKETMQSLNDRLASYLDRVRSLETENRRLESKIREHLEKKGPQVRDWSHYFKIIEDLRAQIFANTVDNARIVLQIDNARLAADDFRVKYETELAMRQSVENDIHGLRKVIDDTNITRLQLETEIEALKEELLFMKKNHEEEVKGLQAQIASSGLTVEVDAPKSQDLAKIMADIRAQYDELARKNREELDKYWSQQIEESTTVVTTQSAEVGAAETTLTELRRTVQSLEIDLDSMRNLKASLENSLREVEARYALQMEQLNGILLHLESELAQTRAEGQRQAQEYEALLNIKVKLEAEIATYRRLLEDGEDFNLG” here?
**A.** soluble

**Q.** Which “soluble on expression in E. coli” value does the source give for “MGHHHHHHSHMSNPRSLEEEKYDMSGARLALILCVTKAREGSEEDLDALEHMFRQLRFESTMKRDPTAEQFQEELEKFQQAIDSREDPVSCAFVVLMAHGREGFLKGEDGEMVKLENLFEALNNKNCQALRAKPKVYIIQACRGEQRDPGETVGGDEIVMVIKDSPQTIPTYTDALHVYSTVEGYIAYRHDQKGSCFIQTLVDVFTKRKGHILELLTEVTRRMAEAELVQEGKARKTNPEIQSTLRKRLYLQ” here?
**A.** not soluble

**Q.** For “MGHHHHHHSHMTNTNEAKPVNVLSAEVMITTAFQDADPMGVVYHGNYFRFFEKARHEMLEKIGYSYRDMMASGYVWPIIDTRVKYVKSIPYDHKIRVEATLTEWENRMRVDYVIYDAETNVRMTKAHTMQVAVSIETEEMCFVSPRIFTDKVEAYHNA”, which “soluble on expression in E. coli” value is on record?
**A.** soluble

**Q.** For “MGHHHHHHSHMTTPRSAPLYKLKSEDGQIFNVERGPMKFCAFINQKFIDHGVNDRNCERADPILVPFHSSIVQAVIEWLYHYQDNPLARRDSKIRYHDFSEWDKQFFNVESGVLFALLNASHALGVEDLMNMGCAAAAELIRGKSTEEIRKIYGIRSDEEQMEEALANGGEGTSAMTFTTDSD”, which “soluble on expression in E. coli” value is on record?
**A.** soluble

**Q.** For “MGHHHHHHSHMYADEVDKDRRTFKKNFSSARGSGIDGKWKRDMFQTANRSPKQNFTTKRRAQTNFVTKAGAAAAGLATRNISTASIRGRTAPAVVREIHTGPSTLIIKNLATTVTQEDLEELFEQYEPELVQLHYGPTGESNGCADLIVPHAQVAIIQKALEGVLLDGEPIEVLEANPPKQVSVFDRIKKVSRGNDFKAKNMRVVVKSKGGFQKRGARGDF”, which “soluble on expression in E. coli” value is on record?
**A.** soluble

**Q.** Which “soluble on expression in E. coli” value does the source give for “MGHHHHHHSHNEPEDSKLRFETYQLIWQQMKSENERLQEELNKNLFDNLIEFLQKSHSGFQKNSRDLGGQIKLREIPTAALVLGVNVTDHDLTFGSLTEALQNNVTPYVVSLQAKDCPDMKHFLQKLISQLMDCCVDIKSKEEESVHVTQRKTHYSMDSLSSWYMTVTQKTDP” here?
**A.** not soluble

**Q.** With “MGHNDELIRNKSAFASEMSDAAAIVQYADKNSLVVLDELARSTSTEEGIAITYAICEKVLKLHSYTFLATHFLDIAALANYSNAIDNYHFLPQIDDNSTKKHKLLRG” as the sequence, how does the “soluble on expression in E. coli” value read?
**A.** not soluble
